Laboratory results published in PMC9402538 (2022).
The star is where a group is joined. FITC = O=C1OC2(c3ccc(O)cc3Oc3cc(O)ccc32)c2ccc(NC(=S)*)cc21; Cbz = O=C(OCc1ccccc1)*

Target: T1, APC (303–739) (UniProt P25054 303-739)
T1 chain: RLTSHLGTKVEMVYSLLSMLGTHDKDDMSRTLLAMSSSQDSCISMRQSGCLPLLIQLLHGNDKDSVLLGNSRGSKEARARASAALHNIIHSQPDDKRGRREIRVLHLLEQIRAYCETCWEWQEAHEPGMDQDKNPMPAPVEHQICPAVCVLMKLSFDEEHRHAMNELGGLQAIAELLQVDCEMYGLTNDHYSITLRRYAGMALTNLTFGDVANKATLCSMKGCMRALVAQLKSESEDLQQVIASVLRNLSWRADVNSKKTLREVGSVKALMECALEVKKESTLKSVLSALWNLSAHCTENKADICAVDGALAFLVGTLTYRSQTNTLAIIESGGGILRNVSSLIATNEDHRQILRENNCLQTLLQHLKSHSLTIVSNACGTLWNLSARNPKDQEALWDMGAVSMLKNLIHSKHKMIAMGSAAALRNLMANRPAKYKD
Test: ITC

Binder	Ka
Cbz-AGESLYEK(FITC)-NH2 [tracer 7 (Z–AGESLYEK[FITC]–NH2)]	1.29e+07 M⁻¹
Ac-GGGGEQLAINELISDGK(FITC)-NH2 [tracer 1 (Ac–GGGGEQLAINELISDGK[FITC]–NH2)]	1.73e+06 M⁻¹
